Experiments:
[1] = target: wild type human EGFR, full length, overexpressed on U87MG cells (human, UniProt P00533 25-1210); experiment: cell-based or functional assay
[2] = target: T1, EGFRvIII, full length, overexpressed on glioblastoma cells (human, UniProt P00533 298-623); experiment: cell-based or functional assay
[3] = target: T2, recombinant human EGFRvIII protein (extracellular domain), denatured (human, UniProt P00533 298-623); experiment: ELISA Exp 1, mAb supernatant
T2 construct: Same protein as m21 after 95 C for 5 min in PBS with 40 mM DTT (denatured, reduced); also called EGFRvIII Denatured

[4] = target: T3, recombinant human wild type EGFR protein (extracellular domain), native (human, UniProt P00533 25-645); experiment: ELISA Exp 1, mAb supernatant
T3 construct: also called wt EGFR; EGFR WT

[5] = target: T4, recombinant human EGFRvIII protein (extracellular domain), native (human, UniProt P00533 298-623); experiment: ELISA Exp 1, mAb supernatant
T4 construct: also called hEGFRvIII

[6] = target: T5, recombinant human wild type EGFR protein (extracellular domain), denatured (human, UniProt P00533 25-645); experiment: ELISA Exp 1, mAb supernatant
T5 construct: Same protein as m23 after 95 C for 5 min in PBS with 40 mM DTT (denatured, reduced); also called wt EGFR Denatured

[7] = target: T6, EGFRvIII fragment amino acid residues 19 to 37, displayed on yeast (human); experiment: yeast surface display, flow cytometry
T6 construct: also called aa 19-37
T6 peptide: ACGADSYEMEEDGVRKCKK
Text: (§1) Assessment of the binding of anti-EGFRvIII mAbs to the fusion proteins expressed on yeast cell surface was done by flow cytometry analysis. Briefly, yeast cells were labeled with both the anti-hEGFRvIII mAb and chicken anti-Myc antibody, the latter being used to monitor the level of expression of the fusion protein. Following a wash step, binding of the primary antibodies is probed by a two-color indirect fluorescence labeling using secondary antibodies specific for mouse and chicken antibodies, respectively.

[8] = target: T2, recombinant human EGFRvIII protein …; experiment: ELISA Exp 2, purified mAb 1 ug/ml;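 note: ELISA of purified mAb binding to plate-coated antigen, native or heat/DTT-denatured, with pNPP substrate developed for 30 min and incubations at room temperature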
Experimental: (§2) Pre- and post-immune sera titers of animals were assessed by ELISA on recombinant EGFRvIII protein. Unless otherwise stated, all incubations were performed at room temperature. […] Microplates were washed three times in PBS and blocked for 30 min with PBS containing 1% bovine serum albumin (BSA, Sigma Cat #A7030). Blocking buffer was removed and 25 μl of serial dilutions of sera samples were added. […] After a 1-h incubation, microplates were washed 4 times and 25 μl of p-nitrophenyl phosphate (pNPP) substrate (Sigma-Aldrich Canada Co., Oakville, ON) at 1 mg/ml in carbonate buffer at pH 9.6 was added and further incubated for 30 min.
(§3) Antigens at 1-2 mg/ml were incubated at 95° C. for 5 min in PBS containing DTT at a final concentration of 40 mM. They were then incubated on ice for 5 min and diluted at their final coating concentration for ELISA purpose.
(§4) ELISA was performed as described above (serum titer determination) using 25 μl of mAb supernatant (Exp 1) or purified mAb at 1 μg/ml (Exp 2).

[9] = target: T3, recombinant human wild type EGFR …; experiment: ELISA Exp 2, purified mAb 1 ug/ml;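 note: ELISA of purified mAb binding to plate-coated antigen, native or heat/DTT-denatured, with pNPP substrate developed for 30 min and incubations at room temperature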
Experimental: as §2, §3, §4

[10] = target: T4, recombinant human EGFRvIII protein …; experiment: ELISA Exp 2, purified mAb 1 ug/ml;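 note: ELISA of purified mAb binding to plate-coated antigen, native or heat/DTT-denatured, with pNPP substrate developed for 30 min and incubations at room temperature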
Experimental: as §2, §3, §4

[11] = target: T5, recombinant human wild type EGFR …; experiment: ELISA Exp 2, purified mAb 1 ug/ml;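 note: ELISA of purified mAb binding to plate-coated antigen, native or heat/DTT-denatured, with pNPP substrate developed for 30 min and incubations at room temperature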
Experimental: as §2, §3, §4

[12] = target: T7, EGFRvIII amino acid residues 15 to 37 with Cys16 to Ala mutation (human); experiment: yeast display flow cytometry, Myc-normalized;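 note: Anti-EGFRvIII monoclonal antibodies tested by flow cytometry on yeast displaying alanine-substituted fragments, two-color indirect fluorescence with anti-Myc signal tracking fusion protein expression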
T7 construct: mutation is already in the entry
T7 peptide: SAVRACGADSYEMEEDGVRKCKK
Text: as §1
(§5) To further characterize mAb epitopes within the EGFRvIII 15-37 region, an alanine scan of this region was performed, and modified fragments were expressed at the surface of the yeast. […] The resulting peptides were expressed at the surface of the yeast and each anti-EGFRvIII mAbs was tested on the corresponding yeast mutant strain by flow cytometry analysis. Thus, this assay determined the contribution of each amino acid(s) in the monoclonal antibody binding.

[13] = target: T8, EGFRvIII amino acid residues 15 to 37 with Lys37 to Ala mutation (human); experiment: yeast display flow cytometry, Myc-normalized;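 note: Anti-EGFRvIII monoclonal antibodies tested by flow cytometry on yeast displaying alanine-substituted fragments, two-color indirect fluorescence with anti-Myc signal tracking fusion protein expression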
T8 construct: mutation is already in the entry
T8 peptide: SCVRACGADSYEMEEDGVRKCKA
Text: as §1, §5

[14] = target: T9, EGFRvIII amino acid residues 15 to 37 with Val17 to Ala mutation (human); experiment: yeast display flow cytometry, Myc-normalized;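 note: Anti-EGFRvIII monoclonal antibodies tested by flow cytometry on yeast displaying alanine-substituted fragments, two-color indirect fluorescence with anti-Myc signal tracking fusion protein expression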
T9 construct: mutation is already in the entry
T9 peptide: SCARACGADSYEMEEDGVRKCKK
Text: as §1, §5

[15] = target: T10, EGFRvIII amino acid residues 15 to 37 with Ser24 to Ala mutation (human); experiment: yeast display flow cytometry, Myc-normalized;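 note: Anti-EGFRvIII monoclonal antibodies tested by flow cytometry on yeast displaying alanine-substituted fragments, two-color indirect fluorescence with anti-Myc signal tracking fusion protein expression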
T10 construct: mutation is already in the entry
T10 peptide: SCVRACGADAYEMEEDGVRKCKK
Text: as §1, §5

[16] = target: T11, EGFRvIII amino acid residues 15 to 37 with Ser15 to Ala mutation (human); experiment: yeast display flow cytometry, Myc-normalized
T11 construct: mutation is already in the entry
T11 peptide: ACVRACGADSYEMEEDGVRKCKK
Text: as §1, §5

[17] = target: T12, EGFRvIII amino acid residues 15 to 37 with Met27 to Ala mutation (human); experiment: yeast display flow cytometry, Myc-normalized
T12 construct: mutation is already in the entry
Text: as §1, §5

[18] = target: T13, EGFRvIII amino acid residues 15 to 37 with Lys34 to Ala mutation (human); experiment: yeast display flow cytometry, Myc-normalized
T13 construct: mutation is already in the entry
T13 peptide: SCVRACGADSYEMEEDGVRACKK
Text: as §1, §5

[19] = target: T14, EGFRvIII amino acid residues 15 to 37 with Glu29 to Ala mutation (human); experiment: yeast display flow cytometry, Myc-normalized
T14 construct: mutation is already in the entry
T14 peptide: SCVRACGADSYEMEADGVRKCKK
Text: as §1, §5

[20] = target: T15, EGFRvIII amino acid residues 15 to 37 with Asp23 to Ala mutation (human); experiment: yeast display flow cytometry, Myc-normalized
T15 construct: mutation is already in the entry
T15 peptide: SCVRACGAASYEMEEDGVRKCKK
Text: as §1, §5

[21] = target: T16, EGFRvIII amino acid residues 15 to 37 with Val32 to Ala mutation (human); experiment: yeast display flow cytometry, Myc-normalized
T16 construct: mutation is already in the entry
T16 peptide: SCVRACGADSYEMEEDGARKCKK
Text: as §1, §5

[22] = target: T17, EGFRvIII amino acid residues 15 to 37 with Lys36 to Ala mutation (human); experiment: yeast display flow cytometry, Myc-normalized
T17 construct: mutation is already in the entry
T17 peptide: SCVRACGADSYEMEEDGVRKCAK
Text: as §1, §5

[23] = target: T18, EGFRvIII amino acid residues 15 to 37 with Arg18 to Ala mutation (human); experiment: yeast display flow cytometry, Myc-normalized
T18 construct: mutation is already in the entry
T18 peptide: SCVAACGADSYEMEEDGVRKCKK
Text: as §1, §5

[24] = target: T19, EGFRvIII amino acid residues 15 to 37 with Tyr25 to Ala mutation (human); experiment: yeast display flow cytometry, Myc-normalized
T19 construct: mutation is already in the entry
T19 peptide: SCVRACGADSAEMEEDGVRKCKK
Text: as §1, §5

[25] = target: T20, EGFRvIII amino acid residues 15 to 37 with Glu28 to Ala mutation (human); experiment: yeast display flow cytometry, Myc-normalized
T20 construct: mutation is already in the entry
T20 peptide: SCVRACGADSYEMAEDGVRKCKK
Text: as §1, §5

[26] = target: T21, EGFRvIII amino acid residues 15 to 37 with Gly21 to Ala mutation (human); experiment: yeast display flow cytometry, Myc-normalized
T21 construct: mutation is already in the entry
T21 peptide: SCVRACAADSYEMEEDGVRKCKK
Text: as §1, §5

[27] = target: T1, EGFRvIII, full length, overexpressed on …; experiment: flow cytometry dose-response on U87MG-EGFRvIII cells, apparent Kd
Experimental: Prior to analysis, cells were plated such that they were not more than 80% confluent on the day of analysis. Unless otherwise stated, all media are kept are 4° C. and all incubations are performed on wet ice. Cells were washed in PBS, harvested by the addition of cell dissociation buffer (Sigma), centrifuged and resuspended in complete medium at a cell density of 2×10⁶ cells/mL. Fifty μL/well of cells were distributed in a polypropylene v-bottom 96 well plate and serial 1/3 dilutions of purified mAbs starting at 100 nM were added and incubated for 2 hours. […] Cells were washed and re-suspended in medium containing Propidium iodide to exclude dead cells from analysis. Samples were filtered through a 60 μm nylon mesh filter plate (Millipore, Ireland) to remove cell aggregates. Flow cytometry analyses were performed on 2,000 viable single-cells events gated on forward scattering, side scattering parameters and propidium iodide dye exclusion using a BD-LSRFortessa flow cytometer (Becton-Dickinson Biosciences, CA, USA) and a standard filter set using BD FACSDiva™ acquisition software, according to manufacturer's instructions.
Specific detection of antibody binding was calculated as the mean fluorescent intensity of binding to each primary antibody after background level subtraction of the mean fluorescent intensity of binding of mouse IgG control. The data were analyzed with GraphPad Prism v 6.0 software using one-site specific binding with Hill slope non-linear regression curve fit model to determine Bmax (maximum specific binding) and Kdₐₚₚ (concentration needed to achieve a half-maximum binding at equilibrium) for each mAb tested.

[28] = target: T22, EGFRvIII amino acid residues 15 to 37 with Glu26 to Ala mutation (human); experiment: yeast display flow cytometry, alanine scan
T22 construct: mutation is already in the entry
T22 peptide: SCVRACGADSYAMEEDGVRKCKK
Text: as §1, §5

[29] = target: T23, EGFRvIII amino acid residues 15 to 37 with Cys35 to Ala mutation (human); experiment: yeast display flow cytometry, alanine scan
T23 construct: mutation is already in the entry
T23 peptide: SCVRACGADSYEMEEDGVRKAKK
Text: as §1, §5

[30] = target: T24, EGFRvIII amino acid residues 15 to 37 with Asp30 to Ala mutation (human); experiment: yeast display flow cytometry, alanine scan
T24 construct: mutation is already in the entry
T24 peptide: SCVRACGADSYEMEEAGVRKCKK
Text: as §1, §5

[31] = target: T25, EGFRvIII amino acid residues 15 to 37 with Arg33 to Ala mutation (human); experiment: yeast display flow cytometry, alanine scan
T25 construct: mutation is already in the entry
T25 peptide: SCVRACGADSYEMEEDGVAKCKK
Text: as §1, §5

[32] = target: T26, EGFRvIII amino acid residues 15 to 37 with Gly31 to Ala mutation (human); experiment: yeast display flow cytometry, alanine scan
T26 construct: mutation is already in the entry
T26 peptide: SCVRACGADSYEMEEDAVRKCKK
Text: as §1, §5

[33] = target: T27, EGFRvIII amino acid residues 15 to 37 with Cys20 to Ala mutation (human); experiment: yeast display flow cytometry, alanine scan
T27 construct: mutation is already in the entry
T27 peptide: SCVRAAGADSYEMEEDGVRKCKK
Text: as §1, §5

T12 sequence (peptide, as listed by the source, change not shown): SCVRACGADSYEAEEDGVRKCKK

B1: F263-4E11 (antibody, V domains shown)
VH: DVQLQESGPGLVKPSQSLSLTCTVTGYSITSDYAWNWIRQFPGNKLEWMGYIGYNGRTSYNPSLKSRISITRDTSKNQFFLQLNYVTTEDTATFYCARLGRGFAYWGQGTLVTVSA
VL: DILMTQSPSSMSVSLGDTVSITCHASQGINSNIGWLLQKPGKSFKGLIYHGTNLEDGVPSRFSGSGSGTDYSLTISSLESEDFADYYCVQYAQFPYTFGGGTKLEIK
notes: Mouse hybridoma mAb
% survival (DM1 secondary-conjugate ADC surrogate assay, vs mouse IgG) [1]: > 98% | % survival (DM1 secondary-conjugate ADC surrogate assay, vs mouse IgG) [2]: 54% | ELISA absorbance 405 nm [3]: 1.39 A405 | ELISA absorbance 405 nm [4]: 1.62 A405 | ELISA absorbance 405 nm [5]: 1.36 A405 | ELISA absorbance 405 nm [6]: 0.029 A405 | binding result [7]: binds | ELISA absorbance 405 nm [8]: 0.997 A405 | ELISA absorbance 405 nm [9]: 1.7 A405 | ELISA absorbance 405 nm [10]: 1.53 A405 | ELISA absorbance 405 nm [11]: 0.001 A405 | % of binding vs wild-type fragment 15-37 [12]: 176% | % of binding vs wild-type fragment 15-37 [13]: 191% | % of binding vs wild-type fragment 15-37 [14]: 148% | % of binding vs wild-type fragment 15-37 [15]: 170% | % of binding vs wild-type fragment 15-37 [16]: 94.9% | % of binding vs wild-type fragment 15-37 [17]: 102% | % of binding vs wild-type fragment 15-37 [18]: 130% | % of binding vs wild-type fragment 15-37 [19]: 75.3% | % of binding vs wild-type fragment 15-37 [20]: 58.4% | % of binding vs wild-type fragment 15-37 [21]: 30.4% | % of binding vs wild-type fragment 15-37 [22]: 110% | % of binding vs wild-type fragment 15-37 [23]: 102% | % of binding vs wild-type fragment 15-37 [24]: 83.3% | % of binding vs wild-type fragment 15-37 [25]: 90.9% | % of binding vs wild-type fragment 15-37 [26]: 180% | Kd [27]: 6.7 nM | binding result [28]: no binding (tested: 0-15% of wild-type binding) | binding result [29]: no binding (tested: 0-15% of wild-type binding) | binding result [30]: no binding (tested: 0-15% of wild-type binding) | binding result [31]: no binding (tested: 0-15% of wild-type binding) | binding result [32]: no binding (tested: 0-15% of wild-type binding) | binding result [33]: no binding (tested: 0-15% of wild-type binding)

Reference: patent US20220193132A1 (NATIONAL RESEARCH COUNCIL OF CANADA, published 2022)
